One block for each binder: values may come before it.
Key:
[1] = molecular target: T1, RAGE(1-404)-3xflag-eBFP (plasmid p605) on HepG2 cells; assay: flow cytometry on fixed p605-HepG2 cells, 1 ug and 5 ug in 100 uL, FITC anti-HA detection
T1 construct: also called p605-HepG2 cells; p605 cells
Procedure: (5) 1 μg and 5 μg of antiRAGE(A90)-Fc were respectively added to 100 μL of the incubation system to incubate at 4° C. for 2 h. The cells were washed and resuspended with 0.5% BSA diluted in PBS.
(6) 1 μL of FITC-conjugated antiHA antibody was respectively added to cells without A90-Fc antibody and cells incubated with A90-Fc antibody to incubate at room temperature for 1 h. The cells were washed twice with PBS, and then resuspended with PBS.

[2] = molecular target: T2, RAGE(1-404)-3xflag-mCherry (plasmid p318) on 293F cells (human); assay: flow cytometry on fixed p318-293F cells, 5 ug scFv in 100 uL, FITC anti-HA detection
T2 construct: also called p318 cells

Human-RAGE-ECD-Fc(IgG1) = molecular target: T3, Human-RAGE-ECD-Fc(IgG1) (human); assay: ELISA, antigen coated at 2 ug/mL, anti-human kappa+lambda-HRP
T3 construct: also called P38406

Cyno-RAGE-ECD-His = molecular target: T4, Cyno-RAGE-ECD-His (monkey (cyno), UniProt Q15109 23-342 (human entry)); assay: ELISA, antigen with and without NHS-biotin label coated at 4 ug/mL
T4 construct: also called P38407
T4 chain: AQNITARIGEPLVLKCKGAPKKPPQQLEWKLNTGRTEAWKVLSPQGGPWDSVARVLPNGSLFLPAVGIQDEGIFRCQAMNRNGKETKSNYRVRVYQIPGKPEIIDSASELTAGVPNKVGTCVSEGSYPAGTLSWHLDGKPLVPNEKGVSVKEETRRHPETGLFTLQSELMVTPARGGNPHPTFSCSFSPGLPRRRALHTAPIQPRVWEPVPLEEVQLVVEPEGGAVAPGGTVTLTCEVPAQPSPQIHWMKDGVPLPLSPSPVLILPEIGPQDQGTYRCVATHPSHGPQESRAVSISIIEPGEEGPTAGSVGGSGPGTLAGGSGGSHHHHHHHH

Mouse-RAGE-ECD-Fc(IgG1) = molecular target: T5, Mouse-RAGE-ECD-Fc(IgG1) (mouse); assay: as above
T5 construct: also called P38410

Cyno-RAGE-ECD-Fc(IgG1) = molecular target: T6, Cyno-RAGE-ECD-Fc(IgG1) (monkey (cyno)); assay: as above
T6 construct: also called P38408

Mouse-RAGE-ECD-His = molecular target: T7, Mouse-RAGE-ECD-His (mouse, UniProt Q62151 23-340); assay: as above
T7 construct: also called P38409

Human-RAGE-ECD-His = molecular target: T8, Human-RAGE-ECD-His (human, UniProt Q15109 23-342); assay: as above
T8 construct: also called P38405

T5 sequence (chain, as listed by the source limits assumed): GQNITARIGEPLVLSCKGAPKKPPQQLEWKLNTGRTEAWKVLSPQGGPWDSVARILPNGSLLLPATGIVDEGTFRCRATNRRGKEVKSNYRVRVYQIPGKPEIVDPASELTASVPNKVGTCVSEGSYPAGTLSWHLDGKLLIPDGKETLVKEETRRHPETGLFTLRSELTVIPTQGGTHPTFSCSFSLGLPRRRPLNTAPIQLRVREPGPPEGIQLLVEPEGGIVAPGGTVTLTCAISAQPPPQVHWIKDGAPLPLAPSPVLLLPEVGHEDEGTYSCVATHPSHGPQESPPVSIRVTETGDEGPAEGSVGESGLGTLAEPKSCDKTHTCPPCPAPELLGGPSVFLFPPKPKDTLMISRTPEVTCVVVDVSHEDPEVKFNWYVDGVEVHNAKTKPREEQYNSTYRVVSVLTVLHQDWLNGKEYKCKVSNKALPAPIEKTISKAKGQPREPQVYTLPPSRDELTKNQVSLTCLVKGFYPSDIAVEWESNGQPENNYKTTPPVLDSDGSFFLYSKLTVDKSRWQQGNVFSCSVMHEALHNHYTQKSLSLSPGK
T7 sequence (Q62151 other isoform, or with tags, fused parts or gaps): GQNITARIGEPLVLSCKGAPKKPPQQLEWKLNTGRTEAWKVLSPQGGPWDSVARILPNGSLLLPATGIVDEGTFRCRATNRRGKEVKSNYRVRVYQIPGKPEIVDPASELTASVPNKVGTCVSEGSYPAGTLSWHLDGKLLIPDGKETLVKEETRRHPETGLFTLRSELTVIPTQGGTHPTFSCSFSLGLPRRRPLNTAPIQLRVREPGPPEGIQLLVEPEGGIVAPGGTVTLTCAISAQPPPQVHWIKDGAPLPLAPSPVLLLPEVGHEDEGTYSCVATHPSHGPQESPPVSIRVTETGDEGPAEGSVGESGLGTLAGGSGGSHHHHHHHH

- binding result [1]: binds
B1: antiRAGE(A90)-Fc (antibody, human IgG1, kappa)
heavy: not shown
light: NIQLTQSPSTLSASVGDRVTITCRASQSISSWLAWYQQKPGKAPKLLIYQASSLESGVPSRFSGSGSGTEFTLTIRSLQPEDFAVYFCQQYKDYPLTFGGGTKVDIKRTVAAPSVFIFPPSDEQLKSGTASVVCLLNNFYPREAKVQWKVDNALQSGNSQESVTEQDSKDSTYSLSSTLTLSKADYEKHKVYACEVTHQGLSSPVTKSFNRGEC
notes: also called antiRAGE(A90)-Fc-G4S-HA; antiRAGE-Fc-G4S-HA-ALFA

- binding result [2]: binds
B2: 6xHis-antiRAGE(A90)-scFv-G4S-HA (scFv)
scFv: HHHHHHQVQLVQSGAEVKKPGSSVKVSCKASGGTFNNYAINWARQAPGQGLEWMGRIVPFFDVTNYAQKFQGRVTITADKSTSTAYMELSSLRSEDTAIYYCAIGSFNWNSGAFDIWGQGTPVTVSSGGGGSGGGGSGGGGSNIQLTQSPSTLSASVGDRVTITCRASQSISSWLAWYQQKPGKAPKLLIYQASSLESGVPSRFSGSGSGTEFTLTIRSLQPEDFAVYFCQQYKDYPLTFGGGTKVDIKGGGGSYPYDVPDYA
notes: also called antiRAGE scFv antibody; antiRAGE-scFv

- binding result (Human-RAGE-ECD-Fc(IgG1)): binds
- binding result (Cyno-RAGE-ECD-His): binds
- binding result (Mouse-RAGE-ECD-Fc(IgG1)): binds
- binding result (Cyno-RAGE-ECD-Fc(IgG1)): binds
- binding result (Mouse-RAGE-ECD-His): binds
- binding result (Human-RAGE-ECD-His): binds
B3: h11E6.16 (antibody, human IgG1, kappa, V domains shown)
VH: EIQLVQSGAEVKKPGASVKVSCKASGYTFTNFGMNWVRQAPGQGLEWMGYINTNTGESIYSEEFKGRFTFTLDTSTSTAYMELSSLRSEDTAVYFCARSRMVTAYGMDYWGQGTSVTVSS
VL: EIVMTQSPATLSLSPGERATLSCKASQNVGTAVAWYQQKPGQSPRLLIFSASNRYTGVPARFSGSGSGTDFTLTISSLQSEDFAVYFCQQYSSYPLTFGQGTKLEIKR
notes: also called h11E6.16 antibody (P38411); P38411
